# In patent publication US9657062B2, “Ghrelin analogues” (Zealand Pharma A/S, priority 2012, dated 2017):
# *1 amine or outer side, *2 acyl side, *3 side chain or, on linkers, in order; H or OH if unused. Side-chain parts run from the residue outwards. [ ]: non-standard residue; d: D form. The star is where a group is joined. γGlu = O=C(O)[C@H](CCC(=O)[*:2])N[*:1]; Palmitoyl = CCCCCCCCCCCCCCCC(=O)*; Octanoyl = CCCCCCCC(=O)*; Dap = NC[C@H](N)C(=O)O; Octyl = CCCCCCCC*
# B1: H-PS-S(octanoyl)-FLSPEHQRVQQRSESKKPPAKLQPR-NH2 (peptide)
# peptide: H-PSS(Octanoyl)FLSPEHQRVQQRSESKKPPAKLQPR-NH2
# SMILES: CCCCCCCC(=O)OC[C@H](NC(=O)[C@H](CO)NC(=O)[C@@H]1CCCN1)C(=O)N[C@@H](Cc1ccccc1)C(=O)N[C@@H](CC(C)C)C(=O)N[C@@H](CO)C(=O)N1CCC[C@H]1C(=O)N[C@@H](CCC(=O)O)C(=O)N[C@@H](Cc1c[nH]cn1)C(=O)N[C@@H](CCC(N)=O)C(=O)N[C@@H](CCCNC(=N)N)C(=O)N[C@H](C(=O)N[C@@H](CCC(N)=O)C(=O)N[C@@H](CCC(N)=O)C(=O)N[C@@H](CCCNC(=N)N)C(=O)N[C@@H](CO)C(=O)N[C@@H](CCC(=O)O)C(=O)N[C@@H](CO)C(=O)N[C@@H](CCCCN)C(=O)N[C@@H](CCCCN)C(=O)N1CCC[C@H]1C(=O)N1CCC[C@H]1C(=O)N[C@@H](C)C(=O)N[C@@H](CCCCN)C(=O)N[C@@H](CC(C)C)C(=O)N[C@@H](CCC(N)=O)C(=O)N1CCC[C@H]1C(=O)N[C@@H](CCCNC(=N)N)C(N)=O)C(C)C
# B2: H-PS-S(O-octyl)-FLSPEHSRVSSRKESSSPPAKLSPR-NH2 (peptide)
# peptide: H-PSS(Octyl)FLSPEHSRVSSRKESSSPPAKLSPR-NH2
# SMILES: CCCCCCCCOC[C@H](NC(=O)[C@H](CO)NC(=O)[C@@H]1CCCN1)C(=O)N[C@@H](Cc1ccccc1)C(=O)N[C@@H](CC(C)C)C(=O)N[C@@H](CO)C(=O)N1CCC[C@H]1C(=O)N[C@@H](CCC(=O)O)C(=O)N[C@@H](Cc1c[nH]cn1)C(=O)N[C@@H](CO)C(=O)N[C@@H](CCCNC(=N)N)C(=O)N[C@H](C(=O)N[C@@H](CO)C(=O)N[C@@H](CO)C(=O)N[C@@H](CCCNC(=N)N)C(=O)N[C@@H](CCCCN)C(=O)N[C@@H](CCC(=O)O)C(=O)N[C@@H](CO)C(=O)N[C@@H](CO)C(=O)N[C@@H](CO)C(=O)N1CCC[C@H]1C(=O)N1CCC[C@H]1C(=O)N[C@@H](C)C(=O)N[C@@H](CCCCN)C(=O)N[C@@H](CC(C)C)C(=O)N[C@@H](CO)C(=O)N1CCC[C@H]1C(=O)N[C@@H](CCCNC(=N)N)C(N)=O)C(C)C
# B3: H-PS-S(O-octyl)-FLSPEHSRPSSR-NH2 (peptide)
# peptide: H-PSS(Octyl)FLSPEHSRPSSR-NH2
# SMILES: CCCCCCCCOC[C@H](NC(=O)[C@H](CO)NC(=O)[C@@H]1CCCN1)C(=O)N[C@@H](Cc1ccccc1)C(=O)N[C@@H](CC(C)C)C(=O)N[C@@H](CO)C(=O)N1CCC[C@H]1C(=O)N[C@@H](CCC(=O)O)C(=O)N[C@@H](Cc1c[nH]cn1)C(=O)N[C@@H](CO)C(=O)N[C@@H](CCCNC(=N)N)C(=O)N1CCC[C@H]1C(=O)N[C@@H](CO)C(=O)N[C@@H](CO)C(=O)N[C@@H](CCCNC(=N)N)C(N)=O
# B4: H-PS-S(O-octyl)-FLSPEHSRVSSRKESKSPPAKLSPR-NH2 (peptide)
# peptide: H-PSS(Octyl)FLSPEHSRVSSRKESKSPPAKLSPR-NH2
# SMILES: CCCCCCCCOC[C@H](NC(=O)[C@H](CO)NC(=O)[C@@H]1CCCN1)C(=O)N[C@@H](Cc1ccccc1)C(=O)N[C@@H](CC(C)C)C(=O)N[C@@H](CO)C(=O)N1CCC[C@H]1C(=O)N[C@@H](CCC(=O)O)C(=O)N[C@@H](Cc1c[nH]cn1)C(=O)N[C@@H](CO)C(=O)N[C@@H](CCCNC(=N)N)C(=O)N[C@H](C(=O)N[C@@H](CO)C(=O)N[C@@H](CO)C(=O)N[C@@H](CCCNC(=N)N)C(=O)N[C@@H](CCCCN)C(=O)N[C@@H](CCC(=O)O)C(=O)N[C@@H](CO)C(=O)N[C@@H](CCCCN)C(=O)N[C@@H](CO)C(=O)N1CCC[C@H]1C(=O)N1CCC[C@H]1C(=O)N[C@@H](C)C(=O)N[C@@H](CCCCN)C(=O)N[C@@H](CC(C)C)C(=O)N[C@@H](CO)C(=O)N1CCC[C@H]1C(=O)N[C@@H](CCCNC(=N)N)C(N)=O)C(C)C
# B5: H-PS-S(octanoyl)-FLSPEHQRVQQSKESKKPPAKLQPR-NH2 (peptide)
# peptide: H-PSS(Octanoyl)FLSPEHQRVQQSKESKKPPAKLQPR-NH2
# SMILES: CCCCCCCC(=O)OC[C@H](NC(=O)[C@H](CO)NC(=O)[C@@H]1CCCN1)C(=O)N[C@@H](Cc1ccccc1)C(=O)N[C@@H](CC(C)C)C(=O)N[C@@H](CO)C(=O)N1CCC[C@H]1C(=O)N[C@@H](CCC(=O)O)C(=O)N[C@@H](Cc1c[nH]cn1)C(=O)N[C@@H](CCC(N)=O)C(=O)N[C@@H](CCCNC(=N)N)C(=O)N[C@H](C(=O)N[C@@H](CCC(N)=O)C(=O)N[C@@H](CCC(N)=O)C(=O)N[C@@H](CO)C(=O)N[C@@H](CCCCN)C(=O)N[C@@H](CCC(=O)O)C(=O)N[C@@H](CO)C(=O)N[C@@H](CCCCN)C(=O)N[C@@H](CCCCN)C(=O)N1CCC[C@H]1C(=O)N1CCC[C@H]1C(=O)N[C@@H](C)C(=O)N[C@@H](CCCCN)C(=O)N[C@@H](CC(C)C)C(=O)N[C@@H](CCC(N)=O)C(=O)N1CCC[C@H]1C(=O)N[C@@H](CCCNC(=N)N)C(N)=O)C(C)C
# B6: H-PS-S(O-octyl)-FLSPEHSRPSSRPESSSPPAKLSPR-NH2 (peptide)
# peptide: H-PSS(Octyl)FLSPEHSRPSSRPESSSPPAKLSPR-NH2
# SMILES: CCCCCCCCOC[C@H](NC(=O)[C@H](CO)NC(=O)[C@@H]1CCCN1)C(=O)N[C@@H](Cc1ccccc1)C(=O)N[C@@H](CC(C)C)C(=O)N[C@@H](CO)C(=O)N1CCC[C@H]1C(=O)N[C@@H](CCC(=O)O)C(=O)N[C@@H](Cc1c[nH]cn1)C(=O)N[C@@H](CO)C(=O)N[C@@H](CCCNC(=N)N)C(=O)N1CCC[C@H]1C(=O)N[C@@H](CO)C(=O)N[C@@H](CO)C(=O)N[C@@H](CCCNC(=N)N)C(=O)N1CCC[C@H]1C(=O)N[C@@H](CCC(=O)O)C(=O)N[C@@H](CO)C(=O)N[C@@H](CO)C(=O)N[C@@H](CO)C(=O)N1CCC[C@H]1C(=O)N1CCC[C@H]1C(=O)N[C@@H](C)C(=O)N[C@@H](CCCCN)C(=O)N[C@@H](CC(C)C)C(=O)N[C@@H](CO)C(=O)N1CCC[C@H]1C(=O)N[C@@H](CCCNC(=N)N)C(N)=O
# B7: H-PS-Dap(N-octanoyl)-FLSPEHSRVSSRKES-K(hexadecanoyl-isoGlu)-KPPA-NH2 (peptide)
# peptide: H-PS[Dap](Octanoyl)FLSPEHSRVSSRKESK([γGlu-Palmitoyl])KPPA-NH2
# SMILES: CCCCCCCCCCCCCCCC(=O)N[C@@H](CCC(=O)NCCCC[C@H](NC(=O)[C@H](CO)NC(=O)[C@H](CCC(=O)O)NC(=O)[C@H](CCCCN)NC(=O)[C@H](CCCNC(=N)N)NC(=O)[C@H](CO)NC(=O)[C@H](CO)NC(=O)[C@@H](NC(=O)[C@H](CCCNC(=N)N)NC(=O)[C@H](CO)NC(=O)[C@H](Cc1c[nH]cn1)NC(=O)[C@H](CCC(=O)O)NC(=O)[C@@H]1CCCN1C(=O)[C@H](CO)NC(=O)[C@H](CC(C)C)NC(=O)[C@H](Cc1ccccc1)NC(=O)[C@H](CNC(=O)CCCCCCC)NC(=O)[C@H](CO)NC(=O)[C@@H]1CCCN1)C(C)C)C(=O)N[C@@H](CCCCN)C(=O)N1CCC[C@H]1C(=O)N1CCC[C@H]1C(=O)N[C@@H](C)C(N)=O)C(=O)O
# B8: H-PS-S(octanoyl)-FLSPEHQSVQQRKESKKPPAKLQPR-NH2 (peptide)
# peptide: H-PSS(Octanoyl)FLSPEHQSVQQRKESKKPPAKLQPR-NH2
# SMILES: CCCCCCCC(=O)OC[C@H](NC(=O)[C@H](CO)NC(=O)[C@@H]1CCCN1)C(=O)N[C@@H](Cc1ccccc1)C(=O)N[C@@H](CC(C)C)C(=O)N[C@@H](CO)C(=O)N1CCC[C@H]1C(=O)N[C@@H](CCC(=O)O)C(=O)N[C@@H](Cc1c[nH]cn1)C(=O)N[C@@H](CCC(N)=O)C(=O)N[C@@H](CO)C(=O)N[C@H](C(=O)N[C@@H](CCC(N)=O)C(=O)N[C@@H](CCC(N)=O)C(=O)N[C@@H](CCCNC(=N)N)C(=O)N[C@@H](CCCCN)C(=O)N[C@@H](CCC(=O)O)C(=O)N[C@@H](CO)C(=O)N[C@@H](CCCCN)C(=O)N[C@@H](CCCCN)C(=O)N1CCC[C@H]1C(=O)N1CCC[C@H]1C(=O)N[C@@H](C)C(=O)N[C@@H](CCCCN)C(=O)N[C@@H](CC(C)C)C(=O)N[C@@H](CCC(N)=O)C(=O)N1CCC[C@H]1C(=O)N[C@@H](CCCNC(=N)N)C(N)=O)C(C)C
# B9: H-PS-S(O-octyl)-FLSPEHSRVSSRKESSKPPAKLSPR-NH2 (peptide)
# peptide: H-PSS(Octyl)FLSPEHSRVSSRKESSKPPAKLSPR-NH2
# SMILES: CCCCCCCCOC[C@H](NC(=O)[C@H](CO)NC(=O)[C@@H]1CCCN1)C(=O)N[C@@H](Cc1ccccc1)C(=O)N[C@@H](CC(C)C)C(=O)N[C@@H](CO)C(=O)N1CCC[C@H]1C(=O)N[C@@H](CCC(=O)O)C(=O)N[C@@H](Cc1c[nH]cn1)C(=O)N[C@@H](CO)C(=O)N[C@@H](CCCNC(=N)N)C(=O)N[C@H](C(=O)N[C@@H](CO)C(=O)N[C@@H](CO)C(=O)N[C@@H](CCCNC(=N)N)C(=O)N[C@@H](CCCCN)C(=O)N[C@@H](CCC(=O)O)C(=O)N[C@@H](CO)C(=O)N[C@@H](CO)C(=O)N[C@@H](CCCCN)C(=O)N1CCC[C@H]1C(=O)N1CCC[C@H]1C(=O)N[C@@H](C)C(=O)N[C@@H](CCCCN)C(=O)N[C@@H](CC(C)C)C(=O)N[C@@H](CO)C(=O)N1CCC[C@H]1C(=O)N[C@@H](CCCNC(=N)N)C(N)=O)C(C)C
# B10: H-PS-S(O-octyl)-FLSPEHSRVSSRPESSSPPAKLSPR-NH2 (peptide)
# peptide: H-PSS(Octyl)FLSPEHSRVSSRPESSSPPAKLSPR-NH2
# SMILES: CCCCCCCCOC[C@H](NC(=O)[C@H](CO)NC(=O)[C@@H]1CCCN1)C(=O)N[C@@H](Cc1ccccc1)C(=O)N[C@@H](CC(C)C)C(=O)N[C@@H](CO)C(=O)N1CCC[C@H]1C(=O)N[C@@H](CCC(=O)O)C(=O)N[C@@H](Cc1c[nH]cn1)C(=O)N[C@@H](CO)C(=O)N[C@@H](CCCNC(=N)N)C(=O)N[C@H](C(=O)N[C@@H](CO)C(=O)N[C@@H](CO)C(=O)N[C@@H](CCCNC(=N)N)C(=O)N1CCC[C@H]1C(=O)N[C@@H](CCC(=O)O)C(=O)N[C@@H](CO)C(=O)N[C@@H](CO)C(=O)N[C@@H](CO)C(=O)N1CCC[C@H]1C(=O)N1CCC[C@H]1C(=O)N[C@@H](C)C(=O)N[C@@H](CCCCN)C(=O)N[C@@H](CC(C)C)C(=O)N[C@@H](CO)C(=O)N1CCC[C@H]1C(=O)N[C@@H](CCCNC(=N)N)C(N)=O)C(C)C
# Target: human growth hormone secretagogue receptor type 1a (human, UniProt Q92847 1-366)
# Assay: cell-based or functional assay
# human growth hormone secretagogue receptor type 1a, sequence (Q92847 whole entry): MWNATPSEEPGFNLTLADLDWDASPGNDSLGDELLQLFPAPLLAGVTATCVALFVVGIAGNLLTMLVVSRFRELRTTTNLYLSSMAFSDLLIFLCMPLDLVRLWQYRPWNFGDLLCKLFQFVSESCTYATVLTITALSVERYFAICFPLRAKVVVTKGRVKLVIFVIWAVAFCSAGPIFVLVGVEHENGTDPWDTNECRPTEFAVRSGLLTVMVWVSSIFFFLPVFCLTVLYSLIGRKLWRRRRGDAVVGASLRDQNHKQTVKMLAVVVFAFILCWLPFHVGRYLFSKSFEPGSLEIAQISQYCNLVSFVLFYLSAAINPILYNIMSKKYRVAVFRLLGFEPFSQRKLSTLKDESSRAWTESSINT
row,Binder,EC50 (nM); Ca2+ induction in HEK293 cells stably expressing the human ghrelin receptor [nM]
1,B1,0.182
2,B2,0.454
3,B3,0.341
4,B4,0.296
5,B5,0.168
6,B6,0.642
7,B7,0.566
8,H-PSS(Octanoyl)FLSPEHQRVQQRKESKKPPAKLQPR-OH [H-PS-S(O-octanoyl)-FLSPEHQRVQQRKESKKPPAKLQPR-OH],0.298
9,B8,0.149
10,B9,0.359
11,B10,0.525
